Holding throughout (assay): native gel or EMSA
(A gel shift assay detects complexes by their altered migration in electrophoresis.)

Assay [1] has as its target BG505-NFL Env trimer (native flexible linker variant, C-terminal hexahistidine tag) (HIV-1 (BG505)).
Assay [2] has as its target BG505-NtCC Env trimer (NFL variant with the N-terminal cysteine-containing coupling tag CAAC and (G4S)3 linker) (HIV-1 (BG505)).
Assay [3] addresses BG505-SOSIP Env trimer (BG505 SOSIP.664 sequence, mini-tPA signal sequence, C-terminal hexahistidine tag) (HIV-1 (BG505)).
Assay [4] concerns the target ConC-NFL Env trimer (stabilized HIV-1 clade C consensus, native flexible linker variant, with G473T) (HIV-1 clade C consensus).
In assay [5] the target is ConC-NtCC Env trimer (stabilized HIV-1 clade C consensus NFL variant with the N-terminal coupling tag CAAC and (G4S)3 linker, with G473T) (HIV-1 clade C consensus).
Assay [6] concerns the target ConC-SOSIP Env trimer (stabilized HIV-1 clade C consensus, ConCv5 KIKO, with G473T) (HIV-1 clade C consensus).

As for “BG505-NFL Env trimer (native flexible linker variant, C-terminal hexahistidine tag) (domain or fragment)”, in assay [1], the stoichiometry N is 3. In turn, “BG505-NtCC Env trimer (NFL variant with the N-terminal cysteine-containing coupling tag CAAC and (G4S)3 linker) (domain or fragment)” gave a stoichiometry N in assay [2] of 3.

Take “BG505-SOSIP Env trimer (BG505 SOSIP.664 sequence, mini-tPA signal sequence, C-terminal hexahistidine tag) (complex)”: the stoichiometry N in assay [3] turned out to be 3. Take “ConC-NFL Env trimer (stabilized HIV-1 clade C consensus, native flexible linker variant, with G473T)”: the stoichiometry N in assay [4] is 3. For “ConC-NtCC Env trimer (stabilized HIV-1 clade C consensus NFL variant with the N-terminal coupling tag CAAC and (G4S)3 linker, with G473T)”, the stoichiometry N in assay [5] was found to be 3.

In the case of “ConC-SOSIP Env trimer (stabilized HIV-1 clade C consensus, ConCv5 KIKO, with G473T) (complex)”, in assay [6], the stoichiometry N amounted to 3.

As a reminder, the stoichiometry N is the number of molecules, sites or subunits per partner or assembly.
